Article PMC10473755

Molecular target: prion-like C-terminal domain of TDP-43 (TDP-43PrLD), in droplets with poly-A RNA (UniProt Q13148)
Assay: co-sedimentation

Sequence of prion-like C-terminal domain of TDP-43 (TDP-43PrLD), in droplets with poly-A RNA (Q13148 267-414): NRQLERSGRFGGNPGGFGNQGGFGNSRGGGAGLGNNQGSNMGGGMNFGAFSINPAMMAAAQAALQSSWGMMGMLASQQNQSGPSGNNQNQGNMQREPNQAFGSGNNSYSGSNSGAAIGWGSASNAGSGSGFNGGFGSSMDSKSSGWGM

percent of total αS partitioned into the droplets: 8%
Substance: α-synuclein, wild-type monomers (from UniProt P37840 1-140) (natural protein)
